Results as given in patent US20240034816A1 (Sanofi, published 2024).
Values joined by “and” are separate entries in the source; they are usually repeats but may differ in a detail not shown here. Equal values may be shown once.

Experiments:
[1] = target: T1, human CD16a (human FcγRIIIA), V isoform (human, UniProt P08637 17-208); experiment: SPR (Biacore T200), His-tagged huCD16a captured by anti-His antibody on CM5 chip, antibody injected at 5.8-3000 nmol/L, steady state fit
T1 construct: also called HuFcyRIIIaV; CD16a (V176)
From the text: All analyte concentrations were run in duplicate together with multiple buffer blanks for double referencing.

human CD64 (human FcγRI) [2] = target: T2, human CD64 (human FcγRI) (human, UniProt P12314 16-292, limits assumed); experiment: SPR, fit 1:1 Binding, Exp No 2
T2 construct: also called HuFcyRI

cynomolgus CD16 [3] = target: T3, cynomolgus CD16 (cynomolgus, UniProt Q8SPW2 17-208); experiment: SPR, fit Two State Reaction, Exp No 3
T3 construct: also called CyFcyRIII

[4] = target: T1, human CD16a (human FcγRIIIA), V isoform; experiment: SPR, fit Two State Reaction, Exp No 3
recombinant human BCMA [5] = target: T4, recombinant human BCMA (human, UniProt Q02223 1-54); experiment: SPR (Biacore 8K), NKCE captured by anti-human Fc, antigen as analyte, 1:1 model; mean of 3 experiments
Procedure: (§1) Measurements were performed in multicycle kinetics experiments for each antibody using a Biacore 8K instrument. In each multicycle experiment the antibodies were captured via an anti-hum a Fc antibody immobilized on a series S CM5 sensor chip (human antibody capture kit, Cytiva, Uppsala, Catalog No. BR1008-39).
(§2) The antigens, diluted as described above (concentration range 0.1 nM to 50 nM), were injected at a flow rate of 60 μL/min for 240 sec followed by a dissociation phase of 400 sec. All analyte concentrations were run in duplicate together with multiple buffer blanks for double referencing. Regeneration of the capture surface was performed with regeneration solution (3 mol/L MgCl2) for 60 sec at 30 μL/min. Binding kinetics data were evaluated with the Biacore 8K Evaluation Software version 1.1.1.7442 using a 1:1 binding model with mass transport limitation.

[6] = target: T5, recombinant human NKp46 extracellular domain (Gln22-Asn255) with C-terminal 6xHis tag (human, UniProt O76036 22-255); experiment: as above
T5 construct: range 22-255; also called huNKp46
Procedure: as §1, §2

cyno BCMA (PPB-17990) [7] = target: T6, cyno BCMA (PPB-17990) (cynomolgus, UniProt A0A2K5UD97 1-53); experiment: as above
T6 construct: also called cynomolgus BCMA
Procedure: as §1, §2

[8] = target: T7, recombinant cynomolgus NKp46 extracellular domain with C-terminal Flag-M2 tag (cynomolgus, UniProt Q95JB9 22-254); experiment: as above
T7 construct: range 22-254; also called cyno NKp46; not shown: C-terminal Flag-M2 tag
Procedure: as §1, §2

[9] = target: human neonatal Fc receptor (FcRn) (human, UniProt P55899 24-297; P61769 21-119); experiment: SPR, binding to huFcRn at pH 6.0
recombinant human BCMA [10] = target: T4, recombinant human BCMA; experiment: SPR (Biacore 8K), NKCE captured by anti-human Fc, antigen as analyte, 1:1 model; Experiment No 1
Procedure: as §1, §2

[11] = target: T5, recombinant human NKp46 extracellular …; experiment: as above
Procedure: as §1, §2

cyno BCMA (PPB-17990) [12] = target: T6, cyno BCMA (PPB-17990); experiment: as above
Procedure: as §1, §2

[13] = target: T7, recombinant cynomolgus NKp46 …; experiment: as above
Procedure: as §1, §2

cynomolgus CD16 [14] = target: T3, cynomolgus CD16; experiment: SPR, fit Two State Reaction, Exp No 1
recombinant human BCMA [15] = target: T4, recombinant human BCMA; experiment: SPR (Biacore 8K), NKCE captured by anti-human Fc, antigen as analyte, 1:1 model; Experiment No 3
Procedure: as §1, §2
Target sequence in this assay (Q02223 1-54 limits assumed): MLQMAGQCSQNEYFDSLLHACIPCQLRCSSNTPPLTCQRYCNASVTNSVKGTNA

cyno BCMA (PPB-17990) [16] = target: T6, cyno BCMA (PPB-17990); experiment: as above
Procedure: as §1, §2

human CD64 (human FcγRI) [17] = target: T2, human CD64 (human FcγRI); experiment: SPR, fit 1:1 Binding, Exp No 1
human CD64 (human FcγRI) [18] = target: T2, human CD64 (human FcγRI); experiment: SPR, fit 1:1 Binding, mean of 3 experiments
[19] = target: T8, human NKp46 on NK cells purified from PBMC of healthy donors (human, UniProt O76036 22-304); experiment: flow cytometry titration on resting human NK cells from healthy donors, detection with goat anti-human IgG Fcγ-PE, 4-parameter fit; NK cells also carry CD16a
T8 construct: whole, on cells; also called NKp46 on donor NK cells
Procedure: After staining, cells were resuspended in BD Cellfix and analyzed by flow cytometry. Parameters were recorded and analysed with FlowJo software. Staining EC50 values were calculated with GraphPad prism using 4 parameter logistics non-linear regression model.

T7 sequence (Q95JB9 22-254): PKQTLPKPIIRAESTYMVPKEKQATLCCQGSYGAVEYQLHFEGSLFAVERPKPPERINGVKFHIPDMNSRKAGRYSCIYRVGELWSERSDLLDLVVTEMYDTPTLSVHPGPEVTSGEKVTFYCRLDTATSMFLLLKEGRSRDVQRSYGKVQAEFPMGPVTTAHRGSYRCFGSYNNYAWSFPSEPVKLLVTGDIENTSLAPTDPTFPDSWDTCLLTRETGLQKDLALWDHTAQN
T6 sequence (A0A2K5UD97 entry or part of it): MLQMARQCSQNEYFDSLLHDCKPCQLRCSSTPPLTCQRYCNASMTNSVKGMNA
T2 sequence (P12314 16-292 limits assumed): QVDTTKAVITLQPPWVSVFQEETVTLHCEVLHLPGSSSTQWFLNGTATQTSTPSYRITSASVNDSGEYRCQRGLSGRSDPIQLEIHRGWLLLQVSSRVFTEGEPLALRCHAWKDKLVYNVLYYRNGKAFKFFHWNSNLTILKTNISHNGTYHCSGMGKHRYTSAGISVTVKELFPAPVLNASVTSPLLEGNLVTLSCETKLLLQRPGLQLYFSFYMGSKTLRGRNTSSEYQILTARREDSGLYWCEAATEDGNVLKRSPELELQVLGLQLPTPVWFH
T5 sequence (O76036 other isoform, or with tags, fused parts or gaps limits assumed): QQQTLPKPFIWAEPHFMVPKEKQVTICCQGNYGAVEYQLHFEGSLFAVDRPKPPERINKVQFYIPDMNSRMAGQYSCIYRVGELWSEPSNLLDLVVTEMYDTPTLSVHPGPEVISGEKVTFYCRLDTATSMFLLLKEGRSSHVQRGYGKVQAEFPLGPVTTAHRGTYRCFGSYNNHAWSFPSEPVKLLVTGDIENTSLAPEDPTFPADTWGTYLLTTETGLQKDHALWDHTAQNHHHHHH
T8 sequence (O76036 22-304): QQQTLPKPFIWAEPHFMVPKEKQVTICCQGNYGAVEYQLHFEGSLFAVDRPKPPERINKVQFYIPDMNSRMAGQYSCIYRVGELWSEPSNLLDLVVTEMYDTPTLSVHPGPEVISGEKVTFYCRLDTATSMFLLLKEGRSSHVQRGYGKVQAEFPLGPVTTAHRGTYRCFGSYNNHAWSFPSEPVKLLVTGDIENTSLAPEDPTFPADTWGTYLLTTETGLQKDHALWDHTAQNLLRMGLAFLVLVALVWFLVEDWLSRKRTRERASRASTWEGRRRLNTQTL
T1 sequence (P08637 17-208 F176V limits assumed): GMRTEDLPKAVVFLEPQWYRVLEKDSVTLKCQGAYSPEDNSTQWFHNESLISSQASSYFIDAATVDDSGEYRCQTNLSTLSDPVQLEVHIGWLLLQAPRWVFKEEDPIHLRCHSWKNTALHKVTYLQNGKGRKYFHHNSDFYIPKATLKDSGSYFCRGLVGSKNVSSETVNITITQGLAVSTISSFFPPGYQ
T3 sequence (Q8SPW2 17-208): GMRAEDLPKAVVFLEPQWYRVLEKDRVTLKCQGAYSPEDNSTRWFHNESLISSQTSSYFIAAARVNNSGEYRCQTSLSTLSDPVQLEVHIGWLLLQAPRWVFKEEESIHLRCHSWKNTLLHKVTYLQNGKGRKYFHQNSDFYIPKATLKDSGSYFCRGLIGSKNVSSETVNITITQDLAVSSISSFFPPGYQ
human neonatal Fc receptor (FcRn), sequence (P55899 24-297 limits assumed, chain 1 of 2): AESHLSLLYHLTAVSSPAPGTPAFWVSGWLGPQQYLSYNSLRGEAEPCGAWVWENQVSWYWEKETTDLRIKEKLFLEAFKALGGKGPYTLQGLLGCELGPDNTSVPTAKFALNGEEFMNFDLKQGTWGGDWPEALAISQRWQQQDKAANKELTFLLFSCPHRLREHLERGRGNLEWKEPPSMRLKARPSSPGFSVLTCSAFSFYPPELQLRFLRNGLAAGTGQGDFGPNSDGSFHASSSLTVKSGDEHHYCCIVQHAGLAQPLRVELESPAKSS
human neonatal Fc receptor (FcRn), sequence (P61769 21-119 limits assumed, chain 2 of 2): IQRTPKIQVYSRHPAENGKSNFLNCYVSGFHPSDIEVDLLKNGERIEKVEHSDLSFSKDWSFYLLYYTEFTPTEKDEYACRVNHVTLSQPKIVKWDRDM

B1: NKp46-BCMA_Fc-ADE-DSB NKCE (bispecific antibody, human IgG1, kappa)
light: QTVVTQEPSLTVSPGGTVTLTCASSTGTVTPSNYANWVQQKPGQAFRGLIGDNNSRPPGTPARFSASLLGGKAALTLSGVQPEDEAEYYCALWFGNQWVFGGGTKLTVLGGGGSGGGGSDIQMTQSPSSLSASVGDRVTITCRASQDISNYLNWYQQKPGKAPKLLIYYTSRLHSGVPSRFSGSGSGTDFTFTISSLQPEDIATYFCQQGNTRPWTFGGGTKVEIKGGGGSGGGGSRTVAAPSVFIFPPSDEQLKSGTASVVCLLNNFYPREAKVQWKVDNALQSGNSQESVTEQDSKDSTYSLSSTLTLSKADYEKHKVYACEVTHQGLSSPVTKSFNRGEC
heavy: QVQLVQSGAEVKKPGSSVKVSCKASGYTFSDYVINWVRQAPGQGLEWMGEIYPGSGTNYYNEKFKAKATITADKSTSTAYMELSSLRSEDTAVYYCARRGRYGLYAMDYWGQGTTVTVSSQVQLVESGGGVVQPGRSLRLSCAASGFTFSNFGMHWVRQAPGRGLEWVAVIWSDETNRYYADSVKGRFTVSRDNVKSTVYLQMNSLISEDTAVYYCARDQQYCSSDSCFTWFDPWGQGTLVTVSSASTKGPSVFPLAPSSKSTSGGTAALGCLVKDYFPEPVTVSWNSGALTSGVHTFPAVLQSSGLYSLSSVVTVPSSSLGTQTYICNVNHKPSNTKVDKKVEPKSCDKTHTCPPCPAPELLAGPDVFLFPPKPKDTLMISRTPEVTCVVVDVSHEDPEVKFNWYVDGVEVHNAKTKPCEEQYNSTYRCVSVLTVLHQDWLNGKEYKCKVSNKALPAPEEKTISKAKGQPREPQVYTLPPCRDELTKNQVSLWCLVKGFYPSDIAVEWESNGQPENNYKTTPPVLDSDGSFFLYSKLTVDKSRWQQGNVFSCSVMHEALHNHYTQKSLSLSPG
chain: DKTHTCPPCPAPELLAGPDVFLFPPKPKDTLMISRTPEVTCVVVDVSHEDPEVKFNWYVDGVEVHNAKTKPCEEQYNSTYRCVSVLTVLHQDWLNGKEYKCKVSNKALPAPEEKTISKAKGQPREPQVCTLPPSRDELTKNQVSLSCAVKGFYPSDIAVEWESNGQPENNYKTTPPVLDSDGSFFLVSKLTVDKSRWQQGNVFSCSVMHEALHNRFTQKSLSLSPG
Kd [1]: 165 nM
Kd (human CD64 (human FcγRI) [2]): 0.27 nM
Kd (cynomolgus CD16 [3]): 15.7 nM
Kd [4]: 16.5 nM
Kd (recombinant human BCMA [5]): 0.2 nM
Kd [6]: 12.5 nM
Kd (cyno BCMA (PPB-17990) [7]): 0.3 nM
Kd [8]: 16.9 nM
Kd [9]: 756 nM
Kd (recombinant human BCMA [10]): 0.2 nM
koff (recombinant human BCMA [10]): 6.1e-05 s⁻¹
kon (recombinant human BCMA [10]): 280000 M⁻¹ s⁻¹
Kd [11]: 11.8 nM
koff [11]: 0.0019 s⁻¹
kon [11]: 160000 M⁻¹ s⁻¹
Kd (cyno BCMA (PPB-17990) [12]): 0.4 nM
koff (cyno BCMA (PPB-17990) [12]): 7.2e-05 s⁻¹
kon (cyno BCMA (PPB-17990) [12]): 170000 M⁻¹ s⁻¹
Kd [13]: 16.6 nM
koff [13]: 0.003 s⁻¹
kon [13]: 210000 M⁻¹ s⁻¹
Kd (cynomolgus CD16 [14]): 10 nM
Kd (recombinant human BCMA [15]): 0.3 nM
koff (recombinant human BCMA [15]): 5.7e-05 s⁻¹
kon (recombinant human BCMA [15]): 190000 M⁻¹ s⁻¹
Kd (cyno BCMA (PPB-17990) [16]): 0.3 nM
koff (cyno BCMA (PPB-17990) [16]): 6e-05 s⁻¹
kon (cyno BCMA (PPB-17990) [16]): 180000 M⁻¹ s⁻¹
Kd (human CD64 (human FcγRI) [17]): 0.32 nM
Kd (human CD64 (human FcγRI) [18]): 0.32 nM
EC50 [19]: 0.585 µg/mL and 0.863 µg/mL and 0.481 µg/mL
